From patent publication US20250101098A1

How the values were obtained:
Assay in all cases: flow cytometry, HEK 293 cells overexpressing the target
[1] = molecular target: cynomolgus monkey nectin-4 protein expressed on the surface of HEK 293 cells (cynomolgus monkey)
[2] = molecular target: human nectin-4 protein expressed on the surface of cells (human) (UniProt Q96NY8)
[3] = molecular target: mouse nectin-4 protein expressed on the surface of HEK 293 cells (mouse) (UniProt Q8R007)
[4] = molecular target: rat nectin-4 protein expressed on the surface of HEK 293 cells (rat) (UniProt D3ZET1)

Chain of human nectin-4 protein expressed on the surface of cells (human) (Q96NY8 32-510 limits assumed): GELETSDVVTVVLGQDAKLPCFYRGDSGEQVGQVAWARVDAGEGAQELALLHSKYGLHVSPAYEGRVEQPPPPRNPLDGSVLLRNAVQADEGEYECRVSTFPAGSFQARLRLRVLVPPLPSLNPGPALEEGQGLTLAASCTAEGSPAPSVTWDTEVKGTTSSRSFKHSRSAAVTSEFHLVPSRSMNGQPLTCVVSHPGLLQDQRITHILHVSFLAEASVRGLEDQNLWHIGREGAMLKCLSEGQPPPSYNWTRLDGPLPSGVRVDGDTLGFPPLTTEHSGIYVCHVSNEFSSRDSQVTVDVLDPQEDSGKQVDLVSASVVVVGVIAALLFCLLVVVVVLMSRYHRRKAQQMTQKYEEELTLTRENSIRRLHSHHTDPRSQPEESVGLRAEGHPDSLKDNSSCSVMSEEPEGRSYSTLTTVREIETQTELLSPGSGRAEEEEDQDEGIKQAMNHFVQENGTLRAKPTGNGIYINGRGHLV
Chain of mouse nectin-4 protein expressed on the surface of HEK 293 cells (mouse) (Q8R007 31-508): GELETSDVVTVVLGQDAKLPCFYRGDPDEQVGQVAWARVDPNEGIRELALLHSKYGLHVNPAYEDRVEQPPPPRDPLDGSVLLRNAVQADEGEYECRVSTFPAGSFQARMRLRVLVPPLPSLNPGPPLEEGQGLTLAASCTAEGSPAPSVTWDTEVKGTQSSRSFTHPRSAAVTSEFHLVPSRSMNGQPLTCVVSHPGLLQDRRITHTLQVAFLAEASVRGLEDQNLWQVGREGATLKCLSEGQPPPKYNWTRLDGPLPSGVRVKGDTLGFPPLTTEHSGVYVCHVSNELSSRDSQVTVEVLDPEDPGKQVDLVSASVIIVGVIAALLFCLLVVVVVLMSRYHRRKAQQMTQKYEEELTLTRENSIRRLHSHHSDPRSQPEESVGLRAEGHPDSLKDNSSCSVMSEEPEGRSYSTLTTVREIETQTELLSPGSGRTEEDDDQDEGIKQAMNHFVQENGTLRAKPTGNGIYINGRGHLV

Flow data [1]: 189
Flow data [2]: 132
Flow data [3]: 163
Flow data [4]: 196
Substance: Anti-FITC Isotype Control (antibody)
